{"source": "patent US9074018B2", "about": "“Reconstituted pulmonary surfactants” (CHIESI FARMACEUTICI S.p.A, priority 2012, dated 2015)", "experiment": "Viscosity of the surfactant preparation", "assay_type": "physicochemical", "settings": "mixed with a phospholipid mixture consisting of DPPC:POPG 7:3 (w/w)", "excerpt": "Advantageously the viscosity of said formulations is less than 20 centiPoise (cP), preferably less than 15 cP, upon determination with a common viscometer available on the market according to methods known in the art."}
{"sequence": "CWLCRALIKRFNRYLTPQLVCRLVLRC [ox Mini-B27, SP-B analogue of formula (III), shorter analogue of ox Mini-B(Leu)]", "values": [{"measurement": "viscosity of the preparation", "result": "viscous"}]}
